The source of these data is patent publication US20210139598A1 (ROCKEFELLER UNIVERSITY, published 2021).

In assay [1] the target is T1, human FcγRIIIA F158 allele, soluble ectodomain (human, UniProt P08637 17-208).
T1 construct: extracellular domain; also called hFcγRIIIA^F158; huFcγRIIIA
In words: SPR (Biacore T100), 2141 Fc variant and soluble FcγR ectodomain. On the procedure: (§1) All experiments were performed with a Biacore T100 surface plasmon resonance (SPR) system (Biacore, GE Healthcare), as previously described (Bournazos, et al., 2014, Cell 158, 1243-1253). Briefly, experiments were performed at 25_C in HBS-EP+ buffer (10 mM HEPES, pH 7.4; 150 mM NaCl; 3.4 mM EDTA; 0.005% (v/v) surfactant P20). […] Background binding to blank immobilized flow cells was subtracted and affinity constants were calculated using BIAcore T100 evaluation software (GE Healthcare) using the 1:1 Langmuir binding model.

Assay [2] deals with T2, human FcγRIIA R131 allele, soluble ectodomain (human, UniProt P12318 34-217).
T2 construct: extracellular domain; also called hFcγRIIA^R131; hFcγRIIA
T2 sequence (looked up): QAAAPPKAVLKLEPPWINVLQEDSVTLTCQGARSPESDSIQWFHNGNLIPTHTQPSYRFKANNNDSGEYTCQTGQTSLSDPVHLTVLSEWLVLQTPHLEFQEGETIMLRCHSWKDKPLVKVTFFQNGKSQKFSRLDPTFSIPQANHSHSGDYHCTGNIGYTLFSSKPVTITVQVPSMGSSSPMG
The description is as above. On the procedure: as §1

Assay [3] deals with T3, human FcγRI, soluble ectodomain (human, UniProt P12314 16-292).
T3 construct: extracellular domain; Recombinant; also called hFcγRI; huFcγRI
T3 sequence (P12314 16-292): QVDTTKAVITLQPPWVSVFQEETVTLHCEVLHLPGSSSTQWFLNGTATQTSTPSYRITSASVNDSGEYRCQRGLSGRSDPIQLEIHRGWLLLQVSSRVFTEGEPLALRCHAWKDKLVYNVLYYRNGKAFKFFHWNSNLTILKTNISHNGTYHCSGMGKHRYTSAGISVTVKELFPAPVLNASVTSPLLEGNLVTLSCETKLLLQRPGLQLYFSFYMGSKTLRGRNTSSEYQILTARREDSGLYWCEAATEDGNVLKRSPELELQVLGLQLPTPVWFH
The description is as above. As for the experimental part: as §1

The target in assay [4] is T4, human FcγRIIB, soluble ectodomain (human, UniProt P31994 43-217).
T4 construct: extracellular domain; Recombinant; also called hFcγRIIB; huFcγRIIB
T4 sequence (looked up): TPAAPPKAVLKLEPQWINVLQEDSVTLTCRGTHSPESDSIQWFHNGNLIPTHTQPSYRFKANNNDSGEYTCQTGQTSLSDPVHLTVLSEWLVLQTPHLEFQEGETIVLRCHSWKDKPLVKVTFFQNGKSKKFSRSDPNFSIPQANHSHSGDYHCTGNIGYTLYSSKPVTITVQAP
Described as above. On the procedure:
as §1

The target in assay [5] is T2, human FcγRIIA R131 allele, soluble …. Nature of the assay: ratio of the binding affinities to hFcγRIIA R131 and to hFcγRIIB, from SPR. As for the experimental part:
as §1

The target of assay [6] is T4, human FcγRIIB, soluble ectodomain. Nature of the assay: fold change in hFcγRIIB binding affinity against wild type IgG1, from SPR. As for the experimental part: as §1
In assay [7] the target is T5, human CD40, soluble ectodomain / recombinant extracellular domain (human, UniProt P25942 21-193).
T5 construct: also called hCD40; huCD40
T5 sequence (P25942 21-193): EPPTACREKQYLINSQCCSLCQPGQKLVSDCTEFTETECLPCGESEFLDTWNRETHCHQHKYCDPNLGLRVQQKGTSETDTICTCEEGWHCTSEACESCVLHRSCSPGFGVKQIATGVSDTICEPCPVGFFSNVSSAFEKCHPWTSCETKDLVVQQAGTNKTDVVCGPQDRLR
In words: SPR (Biacore T100), IgG immobilised, soluble CD40 injected. On the procedure: as §1
On the technique in general: In SPR one partner is held on a chip, and binding of the other changes the refractive index at the surface.

For assay [8], the target named is T2, human FcγRIIA R131 allele, soluble …. In words: graded summary table of FcγR binding affinity profiles (SPR, see Table 4); the sheet prints no allele, R131 taken from Table 4. On the procedure:
as §1

T1 sequence (P08637 17-208): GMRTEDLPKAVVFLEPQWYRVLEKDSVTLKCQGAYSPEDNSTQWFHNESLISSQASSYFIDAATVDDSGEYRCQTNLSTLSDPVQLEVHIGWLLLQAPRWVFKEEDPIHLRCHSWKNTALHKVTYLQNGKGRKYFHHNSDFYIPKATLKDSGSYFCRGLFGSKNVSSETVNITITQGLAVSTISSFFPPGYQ

B1: 2141-IgG1 (anti-human CD40 Ab clone 21.4.1, wild type human IgG1) (antibody)
heavy: not shown
light: DIQMTQSPSSVSASVGDRVTITCRASQGIYSWLAWYQQKPGKAPNLLIYTASTLQSGVPSRFSGSGSGTDFTLTISSLQPEDFATYYCQQANIFPLTFGGGTKVEIKRTVAAPSVFIFPPSDEQLKSGTASVVCLLNNFYPREAKVQWKVDNALQSGNSQESVTEQDSKDSTYSLSSTLTLSKADYEKHKVYACEVTHQGLSSPVTKSFNRGEC
notes: Made in HEK293T cells; also called IgG1 wild type
Usually Kd stands for the free concentration of one partner at which half of the binding sites on the other are occupied at equilibrium, for simple one-to-one binding. The koff is the first-order rate constant of dissociation. As usually defined, the kon is the second-order rate constant of association. For B1, the “Fold (KD(IgG1)/KD(Fc variant))” value in assay [1], in assay [2], in assay [3] and in assay [4] was 1 fold throughout. Moreover, the IIA/IIB in assay [5] is 2.7. Moreover, the FcγRIIB -fold in assay [6] turned out to be 1 fold. Also, the Kd in assay [7] was found to be 19.9 nM. Besides, the koff in assay [7] turned out to be 0.00119 s⁻¹. Besides, in assay [7], the kon amounted to 59700 M⁻¹ s⁻¹.

B2: 2141-IgG2 (CP-870,893, human IgG2) (antibody)
heavy: not shown
light: B1 light
Regarding B2, the Kd in assay [1] was less than 10000 nM. The same molecule had a Kd in assay [2] of less than 10000 nM. In assay [7], the Kd amounted to 31 nM, the koff worked out at 0.00108 s⁻¹ and the kon was 34900 M⁻¹ s⁻¹.

B3: 2141-IgG1 S267E/L328F (antibody)
heavy: not shown
light: B1 light
notes: also called SELF
In the case of B3, in assay [2], binding was characterised by a dissociation constant (Kd) of 17.7 nM. Moreover, in assay [7], the Kd came out at 27.4 nM, the koff was 0.00116 s⁻¹ and the kon amounted to 42300 M⁻¹ s⁻¹.

B4: 2141-IgG2 C127S (antibody)
heavy: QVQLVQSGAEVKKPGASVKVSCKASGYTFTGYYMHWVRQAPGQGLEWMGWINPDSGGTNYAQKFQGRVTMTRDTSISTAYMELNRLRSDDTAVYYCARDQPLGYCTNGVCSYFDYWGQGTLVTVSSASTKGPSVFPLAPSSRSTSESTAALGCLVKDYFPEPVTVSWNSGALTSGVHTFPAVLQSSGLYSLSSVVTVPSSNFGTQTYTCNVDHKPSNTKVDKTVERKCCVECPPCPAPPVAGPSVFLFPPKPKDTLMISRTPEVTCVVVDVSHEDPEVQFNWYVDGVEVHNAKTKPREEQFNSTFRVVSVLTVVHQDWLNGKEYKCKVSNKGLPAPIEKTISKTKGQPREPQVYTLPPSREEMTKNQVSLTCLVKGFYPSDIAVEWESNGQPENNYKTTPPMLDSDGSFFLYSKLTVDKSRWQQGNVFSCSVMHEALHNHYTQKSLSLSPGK
light: B1 light
notes: also called IgG2-B
Consider B4, for which, in assay [7], the Kd was found to be 30.9 nM, the koff is 0.0011 s⁻¹ and the kon turned out to be 35500 M⁻¹ s⁻¹.

B5: 2141-IgG1 N297A (antibody)
heavy: not shown
light: B1 light
notes: also called N297A Fc-null
B5: in assay [8], the binding result was “no binding”. For the same molecule, in assay [7], the Kd is 22.2 nM, the koff was 0.00116 s⁻¹ and the on-rate (kon) worked out at 52300 M⁻¹ s⁻¹.

B6: 2141-IgG2 C232S (antibody)
heavy: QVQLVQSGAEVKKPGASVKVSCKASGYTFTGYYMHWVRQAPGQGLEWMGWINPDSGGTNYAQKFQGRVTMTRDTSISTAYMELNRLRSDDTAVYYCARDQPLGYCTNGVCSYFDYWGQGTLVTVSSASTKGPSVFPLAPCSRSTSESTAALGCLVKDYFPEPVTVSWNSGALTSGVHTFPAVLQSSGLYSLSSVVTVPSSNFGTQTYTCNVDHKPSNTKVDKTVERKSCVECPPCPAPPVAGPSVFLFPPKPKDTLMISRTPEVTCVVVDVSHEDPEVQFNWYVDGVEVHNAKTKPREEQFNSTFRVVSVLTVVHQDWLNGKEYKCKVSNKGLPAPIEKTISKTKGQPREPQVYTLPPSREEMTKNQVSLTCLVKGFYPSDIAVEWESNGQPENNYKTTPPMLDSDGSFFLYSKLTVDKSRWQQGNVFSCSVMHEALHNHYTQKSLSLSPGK
light: B1 light
notes: also called IgG2-C232S (IgG2A); IgG2-A
On to B6, for which, in assay [7], the Kd came to 30.9 nM, the koff was found to be 0.00109 s⁻¹ and the kon was determined as 35200 M⁻¹ s⁻¹.

B7: 2141-IgG1 G237D/P238D/P271G/A330R (V9) (antibody)
heavy: not shown
light: B1 light
Take B7: in assay [3], the affinity, expressed as Kd, was 578 nM. In assay [7], the Kd worked out at 26.8 nM, the koff is 0.00113 s⁻¹ and the kon was 42200 M⁻¹ s⁻¹.

B8: 2141-IgG1 G237D/P238D/H268D/P271G/A330R (V11) (antibody)
heavy: not shown
light: B1 light
notes: also called 2141-V11
Take B8: in assay [7], the Kd was 27.4 nM, the koff amounted to 0.00112 s⁻¹ and the kon was found to be 41000 M⁻¹ s⁻¹.

B9: 2141-IgG1 S267E (antibody)
heavy: not shown
light: B1 light
notes: also called SE
B9: in assay [7], the Kd came to 23.1 nM, the koff is 0.00115 s⁻¹ and the kon was found to be 50000 M⁻¹ s⁻¹.
